Measured values taken from publication PMC6981144.

Key:
[1] = biological target: human SNAP_GLP1R (SNAP-tagged glucagon-like peptide-1 receptor) (human) (UniProt P43220); assay: fluorescent ligand labelling of cells, confocal microscopy; transiently transfected YFP-AD293-SNAP_GLP1R cells; increasing concentrations of compound applied for 60 min; control cells without GLP1R
[2] = biological target: human SNAP_GLP1R (SNAP-tagged glucagon-like peptide-1 receptor) (human) (UniProt P43220)

Sequence of human SNAP_GLP1R (SNAP-tagged glucagon-like peptide-1 receptor) (human) (P43220 24-463): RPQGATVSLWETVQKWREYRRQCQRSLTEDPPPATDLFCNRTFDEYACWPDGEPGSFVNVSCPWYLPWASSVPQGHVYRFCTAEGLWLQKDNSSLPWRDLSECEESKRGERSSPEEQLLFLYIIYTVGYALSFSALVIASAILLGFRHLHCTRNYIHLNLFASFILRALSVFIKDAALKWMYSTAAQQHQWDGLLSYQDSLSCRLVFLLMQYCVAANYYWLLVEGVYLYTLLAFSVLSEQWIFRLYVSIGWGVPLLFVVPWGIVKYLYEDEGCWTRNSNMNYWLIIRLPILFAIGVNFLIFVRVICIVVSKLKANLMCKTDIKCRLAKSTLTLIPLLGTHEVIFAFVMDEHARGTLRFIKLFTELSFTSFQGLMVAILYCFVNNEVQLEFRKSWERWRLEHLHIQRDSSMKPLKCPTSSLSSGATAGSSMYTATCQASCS

## LUXendin555 (peptide)
[1]
  concentration of maximal labelling: 600 nM

## LUXendin645 (peptide)
[2]
  cAMP production (EC50) in HEK293-SNAP GLP1R cells, 30 min stimulation, with the positive allosteric modulator BETP (25 µM): 192 nM
[1]
  concentration of maximal labelling: 250 to 500 nM
